Five proteins from PMC4945389 can be followed below.

Data set [1] is described as follows: surface biotinylation, HEK293. Conditions: glycan changed form; control: UT-A3 alone.
Data set [2] can be described thus: cycloheximide chase 12 h, Western blot, HEK293. Conditions: glycan changed form; control: UT-A3 alone. (A western blot detects proteins with antibodies after separation by electrophoresis.)
Data set [3] in a line: surface biotinylation, Xenopus oocytes.
A short description of data set [4]: FSK-stimulated surface biotinylation, HEK293. Conditions: glycan lost; control: wild type.
Data set [5] is described as follows: FSK-stimulated total UT-A3, Western blot, HEK293. Conditions: glycan lost; control: wild type.
Where [6] appears, read: glycan lost, control: wild type UT-A3, untreated.

B1: UT-A3: ST6GalI co-transfection (protein)
parent chain: MSDHPLKEMSDNNRSPPLPEPLSSRYKLYESELSSPTWPSSSQDTHPALPLLEMPEEKDLRSSDEDSHIVKIEKPNERSKRRESELPRRASAGRGAFSLFQAVSYLTGDMKECKNWLKDKPLVLQFLDWVLRGAAQVMFVNNPLSGLIIFIGLLIQNPWWTIAGALGTVVSTLAALALSQDRSAIASGLHGYNGMLVGLLVAVFSEKLDYYWWLLFPVTFASMACPVISSALSTVFAKWDLPVFTLPFNIALTLYLAATGHYNLFFPTTLVKPASSAPNITWSEIEMPLLLQTIPVGVGQVYGCDNPWTGGVILVALFISSPLICLHAAIGSIVGLLAALTVATPFETIYTGLWSYNCVLSCVAIGGMFYVLTWQTHLLALVCALFCAYTGAALSNMMAVVGVPPGTWAFCLSTLTFLLLTSNNPGIHKLPLSKVTYPEANRIYFLTAKRSDEQKPPNGG
As to B1, the localisation_or_trafficking entry in data set [1] is on record as “increases”. Further, the degradation_or_half_life entry in data set [2] is “increases”.

B2: UT-A3: ST6GalI cRNA co-injection (protein)
parent chain: B1 parent chain
B2: the localisation_or_trafficking result in data set [3] (glycan changed form, control: UT-A3 cRNA alone) was “increases”.

B3: UT-A3: tunicamycin (protein)
parent chain: B1 parent chain
For B3, the localisation_or_trafficking result in data set [3] (setting [6]) is on record as “decreases”.

B4: UT-A3: N279Q (protein)
parent chain: B1 parent chain
Regarding B4, the “localisation_or_trafficking, other: % increase by FSK” value in data set [4] is reported as “decreases”. Moreover, the localisation_or_trafficking entry in data set [3] (setting [6]) is given as “decreases”. In addition, the “expression_or_secretion, other: % increase by FSK” value in data set [5] is listed as “decreases”.

B5: UT-A3: ST3GalIV co-transfection (protein)
parent chain: B1 parent chain
For B5, the localisation_or_trafficking entry in data set [1] is listed as “no change”.
